Laboratory results: paper PMC10540216, “Activity Guided Azide-methyllysine Photo-trapping for Substrate Profiling of Lysine Demethylases” (Journal of the American Chemical Society, 2023)

System: KDM4A-I71AzF
Test: CASI: photo-crosslinking with HEK293T cell extracts, StrepTactin enrichment and LC-MS/MS proteomics;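 also: lysates from HEK293T cells pretreated with a KDM4 inhibitor to raise proteome methylation, affinity-purified after ±UV, gel-resolved, trypsin-digested, with exclusive unique peptides per protein averaged per condition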
Type: binding, human
Conditions: sheet "Final results but with 0.01"

B1: CAND1_HUMAN (protein, UniProt Q86VP6 2-1230, looked up)
Cullin-associated …: ASASYHISNLLEKMTSSDKDFRFMATNDLMTELQKDSIKLDDDSERKVVKMILKLLEDKNGEVQNLAVKCLGPLVSKVKEYQVETIVDTLCTNMLSDKEQLRDISSIGLKTVIGELPPASSGSALAANVCKKITGRLTSAIAKQEDVSVQLEALDIMADMLSRQGGLLVNFHPSILTCLLPQLTSPRLAVRKRTIIALGHLVMSCGNIVFVDLIEHLLSELSKNDSMSTTRTYIQCIAAISRQAGHRIGEYLEKIIPLVVKFCNVDDDELREYCIQAFESFVRRCPKEVYPHVSTIINICLKYLTYDPNYNYDDEDEDENAMDADGGDDDDQGSDDEYSDDDDMSWKVRRAAAKCLDAVVSTRHEMLPEFYKTVSPALISRFKEREENVKADVFHAYLSLLKQTRPVQSWLCDPDAMEQGETPLTMLQSQVPNIVKALHKQMKEKSVKTRQCCFNMLTELVNVLPGALTQHIPVLVPGIIFSLNDKSSSSNLKIDALSCLYVILCNHSPQVFHPHVQALVPPVVACVGDPFYKITSEALLVTQQLVKVIRPLDQPSSFDATPYIKDLFTCTIKRLKAADIDQEVKERAISCMGQIICNLGDNLGSDLPNTLQIFLERLKNEITRLTTVKALTLIAGSPLKIDLRPVLGEGVPILASFLRKNQRALKLGTLSALDILIKNYSDSLTAAMIDAVLDELPPLISESDMHVSQMAISFLTTLAKVYPSSLSKISGSILNELIGLVRSPLLQGGALSAMLDFFQALVVTGTNNLGYMDLLRMLTGPVYSQSTALTHKQSYYSIAKCVAALTRACPKEGPAVVGQFIQDVKNSRSTDSIRLLALLSLGEVGHHIDLSGQLELKSVILEAFSSPSEEVKSAASYALGSISVGNLPEYLPFVLQEITSQPKRQYLLLHSLKEIISSASVVGLKPYVENIWALLLKHCECAEEGTRNVVAECLGKLTLIDPETLLPRLKGYLISGSSYARSSVVTAVKFTISDHPQPIDPLLKNCIGDFLKTLEDPDLNVRRVALVTFNSAAHNKPSLIRDLLDTVLPHLYNETKVRKELIREVEMGPFKHTVDDGLDIRKAAFECMYTLLDSCLDRLDIFEFLNHVEDGLKDHYDIKMLTFLMLVRLSTLCPSAVLQRLDRLVEPLRATCTTKVKANSVKQEFEKQDELKRSAMRAVAALLTIPEAEKSPLMSEFQSQISSNPELAAIFESIQKDSSSTNLESMDTS
In the case of B1, the “Fold change (+UV/-UV)” value is reported as 0.3333.

B2: RBM26_HUMAN (protein, UniProt Q5T8P6 1-1007, looked up)
RNA-binding protein 26: MVSKMIIENFEALKSWLSKTLEPICDADPSALAKYVLALVKKDKSEKELKALCIDQLDVFLQKETQIFVEKLFDAVNTKSYLPPPEQPSSGSLKVEFFPHQEKDIKKEEITKEEEREKKFSRRLNHSPPQSSSRYRENRSRDERKKDDRSRKRDYDRNPPRRDSYRDRYNRRRGRSRSYSRSRSRSWSKERLRERDRDRSRTRSRSRTRSRERDLVKPKYDLDRTDPLENNYTPVSSVPSISSGHYPVPTLSSTITVIAPTHHGNNTTESWSEFHEDQVDHNSYVRPPMPKKRCRDYDEKGFCMRGDMCPFDHGSDPVVVEDVNLPGMLPFPAQPPVVEGPPPPGLPPPPPILTPPPVNLRPPVPPPGPLPPSLPPVTGPPPPLPPLQPSGMDAPPNSATSSVPTVVTTGIHHQPPPAPPSLFTADTYDTDGYNPEAPSITNTSRPMYRHRVHAQRPNLIGLTSGDMDLPPREKPPNKSSMRIVVDSESRKRTIGSGEPGVPTKKTWFDKPNFNRTNSPGFQKKVQFGNENTKLELRKVPPELNNISKLNEHFSRFGTLVNLQVAYNGDPEGALIQFATYEEAKKAISSTEAVLNNRFIKVYWHREGSTQQLQTTSPKVMQPLVQQPILPVVKQSVKERLGPVPSSTIEPAEAQSASSDLPQNVTKLSVKDRLGFVSKPSVSATEKVLSTSTGLTKTVYNPAALKAAQKTLLVSTSAVDNNEAQKKKQEALKLQQDVRKRKQEILEKHIETQKMLISKLEKNKTMKSEDKAEIMKTLEVLTKNITKLKDEVKAASPGRCLPKSIKTKTQMQKELLDTELDLYKKMQAGEEVTELRRKYTELQLEAAKRGILSSGRGRGIHSRGRGAVHGRGRGRGRGRGVPGHAVVDHRPRALEISAFTESDREDLLPHFAQYGEIEDCQIDDSSLHAVITFKTRAEAEAAAVHGARFKGQDLKLAWNKPVTNISAVETEEVEPDEEEFQEESLVDDSLLQDDDEEEEDNESRSWRR
With B2 the “Fold change (+UV/-UV)” value was 0.3333.

B3: SF3B3_HUMAN (protein, UniProt Q15393 1-1217, looked up)
Splicing factor 3B subunit 3: MFLYNLTLQRATGISFAIHGNFSGTKQQEIVVSRGKILELLRPDPNTGKVHTLLTVEVFGVIRSLMAFRLTGGTKDYIVVGSDSGRIVILEYQPSKNMFEKIHQETFGKSGCRRIVPGQFLAVDPKGRAVMISAIEKQKLVYILNRDAAARLTISSPLEAHKANTLVYHVVGVDVGFENPMFACLEMDYEEADNDPTGEAAANTQQTLTFYELDLGLNHVVRKYSEPLEEHGNFLITVPGGSDGPSGVLICSENYITYKNFGDQPDIRCPIPRRRNDLDDPERGMIFVCSATHKTKSMFFFLAQTEQGDIFKITLETDEDMVTEIRLKYFDTVPVAAAMCVLKTGFLFVASEFGNHYLYQIAHLGDDDEEPEFSSAMPLEEGDTFFFQPRPLKNLVLVDELDSLSPILFCQIADLANEDTPQLYVACGRGPRSSLRVLRHGLEVSEMAVSELPGNPNAVWTVRRHIEDEFDAYIIVSFVNATLVLSIGETVEEVTDSGFLGTTPTLSCSLLGDDALVQVYPDGIRHIRADKRVNEWKTPGKKTIVKCAVNQRQVVIALTGGELVYFEMDPSGQLNEYTERKEMSADVVCMSLANVPPGEQRSRFLAVGLVDNTVRIISLDPSDCLQPLSMQALPAQPESLCIVEMGGTEKQDELGERGSIGFLYLNIGLQNGVLLRTVLDPVTGDLSDTRTRYLGSRPVKLFRVRMQGQEAVLAMSSRSWLSYSYQSRFHLTPLSYETLEFASGFASEQCPEGIVAISTNTLRILALEKLGAVFNQVAFPLQYTPRKFVIHPESNNLIIIETDHNAYTEATKAQRKQQMAEEMVEAAGEDERELAAEMAAAFLNENLPESIFGAPKAGNGQWASVIRVMNPIQGNTLDLVQLEQNEAAFSVAVCRFSNTGEDWYVLVGVAKDLILNPRSVAGGFVYTYKLVNNGEKLEFLHKTPVEEVPAAIAPFQGRVLIGVGKLLRVYDLGKKKLLRKCENKHIANYISGIQTIGHRVIVSDVQESFIWVRYKRNENQLIIFADDTYPRWVTTASLLDYDTVAGADKFGNICVVRLPPNTNDEVDEDPTGNKALWDRGLLNGASQKAEVIMNYHVGETVLSLQKTTLIPGGSESLVYTTLSGGIGILVPFTSHEDHDFFQHVEMHLRSEHPPLCGRDHLSFRSYYFPVKNVIDGDLCEQFNSMEPNKQKNVSEELDRTPPEVSKKLEDIRTRYAF
B3 was tested, and the “Fold change (+UV/-UV)” value was 0.7381.

B4: RBM10_HUMAN (protein, UniProt P98175 1-930, looked up)
RNA-binding protein 10: MEYERRGGRGDRTGRYGATDRSQDDGGENRSRDHDYRDMDYRSYPREYGSQEGKHDYDDSSEEQSAEDSYEASPGSETQRRRRRRHRHSPTGPPGFPRDGDYRDQDYRTEQGEEEEEEEDEEEEEKASNIVMLRMLPQAATEDDIRGQLQSHGVQAREVRLMRNKSSGQSRGFAFVEFSHLQDATRWMEANQHSLNILGQKVSMHYSDPKPKINEDWLCNKCGVQNFKRREKCFKCGVPKSEAEQKLPLGTRLDQQTLPLGGRELSQGLLPLPQPYQAQGVLASQALSQGSEPSSENANDTIILRNLNPHSTMDSILGALAPYAVLSSSNVRVIKDKQTQLNRGFAFIQLSTIVEAAQLLQILQALHPPLTIDGKTINVEFAKGSKRDMASNEGSRISAASVASTAIAAAQWAISQASQGGEGTWATSEEPPVDYSYYQQDEGYGNSQGTESSLYAHGYLKGTKGPGITGTKGDPTGAGPEASLEPGADSVSMQAFSRAQPGAAPGIYQQSAEASSSQGTAANSQSYTIMSPAVLKSELQSPTHPSSALPPATSPTAQESYSQYPVPDVSTYQYDETSGYYYDPQTGLYYDPNSQYYYNAQSQQYLYWDGERRTYVPALEQSADGHKETGAPSKEGKEKKEKHKTKTAQQIAKDMERWARSLNKQKENFKNSFQPISSLRDDERRESATADAGYAILEKKGALAERQHTSMDLPKLASDDRPSPPRGLVAAYSGESDSEEEQERGGPEREEKLTDWQKLACLLCRRQFPSKEALIRHQQLSGLHKQNLEIHRRAHLSENELEALEKNDMEQMKYRDRAAERREKYGIPEPPEPKRRKYGGISTASVDFEQPTRDGLGSDNIGSRMLQAMGWKEGSGLGRKKQGIVTPIEAQTRVRGSGLGARGSSYGVTSTESYKETLHKTMVTRFNEAQ
In the case of B4, the “Fold change (+UV/-UV)” value is reported as 0.
